Changes are numbered by the printed parent chain.

What all share (assay): SPR; PBP1B versions immobilised to the chip surface; LpoB injected from 19.5 nM to 10 μM; apparent KD by non-linear regression, at least three independent experiments
What all share (settings): both partners purified

One assay has as its target T1, PBP1B P162C/I644C (E. coli, UniProt P02919 46-844, P162C | I644C).
T1 construct: PBP1B, E. coli, residues 46-844, made by mutagenesis of pDML924; Disulphide bridge between C162 and C644 (no free thiol groups detected); reduced in the SPR assay with 2 mM TCEP; source: E. coli BL21(DE3), purified (membrane extract, HisTrap, thrombin, HiTrap SP ion exchange)
T1 sequence (looked up): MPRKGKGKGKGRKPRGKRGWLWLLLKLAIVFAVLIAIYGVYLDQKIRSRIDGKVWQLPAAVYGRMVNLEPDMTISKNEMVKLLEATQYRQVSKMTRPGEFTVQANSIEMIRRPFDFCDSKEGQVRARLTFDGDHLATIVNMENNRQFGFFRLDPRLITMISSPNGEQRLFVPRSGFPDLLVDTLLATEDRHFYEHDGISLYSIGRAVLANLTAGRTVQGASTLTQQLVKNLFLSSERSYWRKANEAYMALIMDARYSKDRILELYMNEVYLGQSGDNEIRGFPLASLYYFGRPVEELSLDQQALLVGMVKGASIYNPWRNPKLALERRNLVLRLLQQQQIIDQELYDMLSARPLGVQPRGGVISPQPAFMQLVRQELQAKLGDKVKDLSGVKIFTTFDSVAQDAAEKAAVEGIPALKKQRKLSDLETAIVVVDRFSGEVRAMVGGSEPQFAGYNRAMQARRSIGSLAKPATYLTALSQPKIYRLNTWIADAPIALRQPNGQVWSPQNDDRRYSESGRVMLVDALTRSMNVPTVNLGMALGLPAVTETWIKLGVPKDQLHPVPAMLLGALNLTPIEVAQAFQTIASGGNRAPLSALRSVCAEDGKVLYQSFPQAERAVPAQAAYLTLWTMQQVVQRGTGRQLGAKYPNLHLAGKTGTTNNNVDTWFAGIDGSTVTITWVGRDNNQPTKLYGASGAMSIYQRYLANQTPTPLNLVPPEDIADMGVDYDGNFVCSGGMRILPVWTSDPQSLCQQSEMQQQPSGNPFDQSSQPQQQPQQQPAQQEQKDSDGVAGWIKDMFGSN

Assay [1] deals with T2, PBP1B (wild type, PBP1B^46-844) (E. coli, UniProt P02919 46-844).
T2 construct: PBP1B, E. coli, residues 46-844, encoded on pDML924; Immobilised on the SPR chip as in Egan et al. 2014 / Gray et al. 2015; also called WT PBP1B; WT; source: E. coli BL21(DE3), purified (membrane extract, HisTrap, thrombin, HiTrap SP ion exchange)
T2 sequence (looked up): T1 sequence (looked up) with C117P, C599I

The target in the next assay is T3, PBP1B R157A (E. coli, UniProt P02919 46-844, R157A).
T3 construct: PBP1B, E. coli, residues 46-844, made by mutagenesis of pDML924; source: E. coli BL21(DE3), purified (membrane extract, HisTrap, thrombin, HiTrap SP ion exchange)
T3 sequence (looked up): T1 sequence (looked up) with R112A, C117P, C599I

B1: LpoB (natural protein, E. coli)
chain: VGQREPAPVEEVKPAPEQPAEPQQPVPTVPSVPTIPQQPGPIEHEDQTAPPAPHIRHYDWNGAMQPMVSKMLGADGVTAGSVLLVDSVNNRTNGSLNAAEATETLRNALANNGKFTLVSAQQLSMAKQQLGLSPQDSLGTRSKAIGIARNVGAHYVLYSSASGNVNAPTLQMQLMLVQTGEIIWSGKGAVSQQ
notes: LpoB, E. coli; also called lipoprotein LpoB; source: E. coli BL21(DE3), purified (HisTrap, Superdex 200), as in Egan et al. 2014
Take B1: the Kd with PBP1B P162C/I644C was 213 nM; in assay [1] it was 491 nM; with PBP1B R157A, 505 nM.

The record behind these values is article PMC6220978, “Induced conformational changes activate the peptidoglycan synthase PBP1B” (Molecular Microbiology, 2018).
